From PMC4915676, “Dissociation Dynamics of XPC-RAD23B from Damaged DNA Is a Determining Factor of NER Efficiency”

T1: UvrA (UniProt P0A698 1-940)
T1 sequence: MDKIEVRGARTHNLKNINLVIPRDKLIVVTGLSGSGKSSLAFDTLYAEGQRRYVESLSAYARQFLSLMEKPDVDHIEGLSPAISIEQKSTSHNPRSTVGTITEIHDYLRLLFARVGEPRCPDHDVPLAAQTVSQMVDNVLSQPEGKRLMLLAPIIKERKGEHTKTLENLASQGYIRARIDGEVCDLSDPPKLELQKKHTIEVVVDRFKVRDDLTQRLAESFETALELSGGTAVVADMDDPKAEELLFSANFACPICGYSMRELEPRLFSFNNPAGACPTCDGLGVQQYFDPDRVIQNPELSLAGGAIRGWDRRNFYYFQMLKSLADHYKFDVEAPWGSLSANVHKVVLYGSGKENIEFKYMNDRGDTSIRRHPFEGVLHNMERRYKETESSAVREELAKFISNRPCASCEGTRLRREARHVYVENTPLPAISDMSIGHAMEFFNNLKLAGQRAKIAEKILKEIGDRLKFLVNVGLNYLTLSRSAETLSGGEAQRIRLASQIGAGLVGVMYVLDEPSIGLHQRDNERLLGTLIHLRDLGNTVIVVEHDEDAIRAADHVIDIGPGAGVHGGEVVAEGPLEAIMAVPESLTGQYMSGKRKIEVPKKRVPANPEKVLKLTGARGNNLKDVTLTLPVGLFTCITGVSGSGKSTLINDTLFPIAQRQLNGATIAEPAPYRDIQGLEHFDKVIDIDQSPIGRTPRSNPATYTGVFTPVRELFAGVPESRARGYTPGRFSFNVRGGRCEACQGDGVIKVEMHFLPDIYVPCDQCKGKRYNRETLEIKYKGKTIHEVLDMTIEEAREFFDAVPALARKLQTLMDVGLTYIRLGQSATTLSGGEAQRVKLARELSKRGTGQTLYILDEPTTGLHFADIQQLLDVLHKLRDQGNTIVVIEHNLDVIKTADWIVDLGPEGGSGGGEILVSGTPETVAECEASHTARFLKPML

B1: NarI-G1 mono-FAAF 55-mer (dsDNA)
DNA 1: CCACTCCTATCCACCATCCATCTTACTCTCGGCGCCATCACCACTCACCACCACA
DNA 2: TGTGGTGGTGAGTGGTGATGGCGCCGAGAGTAAGATGGATGGTGGATAGGAGTGG
modifications: dG-FAAF at G31 (G1) of strand 1
B2: NarI-G1G2 di-FAAF 55-mer (dsDNA)
DNA 1: CCACTCCTATCCACCATCCATCTTACTCTCGGCGCCATCACCACTCACCACCACA
DNA 2: TGTGGTGGTGAGTGGTGATGGCGCCGAGAGTAAGATGGATGGTGGATAGGAGTGG
modifications: dG-FAAF at G31 and G32 (G1, G2) of strand 1
B3: NarI-G3 mono-FAAF 55-mer (dsDNA)
DNA 1: CCACTCCTATCCACCATCCATCTTACTCTCGGCGCCATCACCACTCACCACCACA
DNA 2: TGTGGTGGTGAGTGGTGATGGCGCCGAGAGTAAGATGGATGGTGGATAGGAGTGG
modifications: dG-FAAF at G34 (G3) of strand 1
B4: NarI-G2 mono-FAAF 55-mer (dsDNA)
DNA 1: CCACTCCTATCCACCATCCATCTTACTCTCGGCGCCATCACCACTCACCACCACA
DNA 2: TGTGGTGGTGAGTGGTGATGGCGCCGAGAGTAAGATGGATGGTGGATAGGAGTGG
modifications: dG-FAAF at G32 (G2) of strand 1
B5: NarI-G1G3 di-FAAF 55-mer (dsDNA)
DNA 1: CCACTCCTATCCACCATCCATCTTACTCTCGGCGCCATCACCACTCACCACCACA
DNA 2: TGTGGTGGTGAGTGGTGATGGCGCCGAGAGTAAGATGGATGGTGGATAGGAGTGG
modifications: dG-FAAF at G31 and G34 (G1, G3) of strand 1
B6: NarI-G2G3 di-FAAF 55-mer (dsDNA)
DNA 1: CCACTCCTATCCACCATCCATCTTACTCTCGGCGCCATCACCACTCACCACCACA
DNA 2: TGTGGTGGTGAGTGGTGATGGCGCCGAGAGTAAGATGGATGGTGGATAGGAGTGG
modifications: dG-FAAF at G32 and G34 (G2, G3) of strand 1

Columns and labels:
XPC-RAD23B [1] = target: T2, XPC-RAD23B (Homo sapiens, UniProt Q01831;P54727 1-940;1-409); assay: SPR; 5 mM Mg2+; SPR: HBS-P+ (10 mM HEPES, 150 mM NaCl, 0.05% P20), 5 mM MgCl2, 1 mM DTT, 100 ug/mL BSA (+0.5 mM ATP for UvrA), pH and temperature not stated; EMSA: 20 mM Hepes-KOH pH 7.9, 75 mM KCl, 5 mM MgCl2, 1 mM DTT, 5% glycerol, 100 ug/mL BSA, 30 C; settings: protein: recombinant; copies: 1;1; label: 5'-biotin on strand 1; blunt
UvrA = target: T1, UvrA; assay: SPR; 0.5 mM ATP, 5 mM Mg2+; SPR: HBS-P+ (10 mM HEPES, 150 mM NaCl, 0.05% P20), 5 mM MgCl2, 1 mM DTT, 100 ug/mL BSA (+0.5 mM ATP for UvrA), pH and temperature not stated; EMSA: 20 mM Hepes-KOH pH 7.9, 75 mM KCl, 5 mM MgCl2, 1 mM DTT, 5% glycerol, 100 ug/mL BSA, 30 C; settings: protein: recombinant; chain copies: 2; label: 5'-biotin on strand 1; blunt
XPC-RAD23B [2] = target: T2, XPC-RAD23B; assay: SPR; 5 mM Mg2+; error as printed is 0.01e-9; SPR: HBS-P+ (10 mM HEPES, 150 mM NaCl, 0.05% P20), 5 mM MgCl2, 1 mM DTT, 100 ug/mL BSA (+0.5 mM ATP for UvrA), pH and temperature not stated; EMSA: 20 mM Hepes-KOH pH 7.9, 75 mM KCl, 5 mM MgCl2, 1 mM DTT, 5% glycerol, 100 ug/mL BSA, 30 C; settings: protein: recombinant; copies: 1;1; label: 5'-biotin on strand 1; blunt

T2 sequence (Q01831 whole entry, chain 1 of 2): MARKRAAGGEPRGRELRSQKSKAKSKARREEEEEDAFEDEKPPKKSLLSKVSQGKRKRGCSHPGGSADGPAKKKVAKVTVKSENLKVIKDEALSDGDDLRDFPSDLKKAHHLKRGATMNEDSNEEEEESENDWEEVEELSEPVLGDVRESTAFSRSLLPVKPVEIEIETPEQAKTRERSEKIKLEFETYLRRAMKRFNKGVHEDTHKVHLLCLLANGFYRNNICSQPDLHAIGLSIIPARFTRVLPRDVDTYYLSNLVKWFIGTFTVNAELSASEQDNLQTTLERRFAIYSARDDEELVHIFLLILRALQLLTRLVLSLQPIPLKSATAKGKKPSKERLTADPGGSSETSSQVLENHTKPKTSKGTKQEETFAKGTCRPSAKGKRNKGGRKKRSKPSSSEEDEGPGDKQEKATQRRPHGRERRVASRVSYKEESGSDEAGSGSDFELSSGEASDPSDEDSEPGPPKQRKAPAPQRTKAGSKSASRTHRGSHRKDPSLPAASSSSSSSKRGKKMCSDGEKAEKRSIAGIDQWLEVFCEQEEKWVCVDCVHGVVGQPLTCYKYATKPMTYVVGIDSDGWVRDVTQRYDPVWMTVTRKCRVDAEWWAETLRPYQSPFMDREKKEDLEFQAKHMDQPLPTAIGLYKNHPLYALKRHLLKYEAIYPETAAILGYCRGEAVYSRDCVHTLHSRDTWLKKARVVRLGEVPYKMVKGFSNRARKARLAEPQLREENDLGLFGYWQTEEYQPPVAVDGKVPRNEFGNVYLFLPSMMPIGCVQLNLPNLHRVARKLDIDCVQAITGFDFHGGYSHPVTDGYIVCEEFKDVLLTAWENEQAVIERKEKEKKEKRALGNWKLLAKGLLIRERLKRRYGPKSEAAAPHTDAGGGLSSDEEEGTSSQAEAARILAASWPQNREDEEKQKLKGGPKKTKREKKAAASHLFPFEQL
T2 sequence (P54727 whole entry, chain 2 of 2): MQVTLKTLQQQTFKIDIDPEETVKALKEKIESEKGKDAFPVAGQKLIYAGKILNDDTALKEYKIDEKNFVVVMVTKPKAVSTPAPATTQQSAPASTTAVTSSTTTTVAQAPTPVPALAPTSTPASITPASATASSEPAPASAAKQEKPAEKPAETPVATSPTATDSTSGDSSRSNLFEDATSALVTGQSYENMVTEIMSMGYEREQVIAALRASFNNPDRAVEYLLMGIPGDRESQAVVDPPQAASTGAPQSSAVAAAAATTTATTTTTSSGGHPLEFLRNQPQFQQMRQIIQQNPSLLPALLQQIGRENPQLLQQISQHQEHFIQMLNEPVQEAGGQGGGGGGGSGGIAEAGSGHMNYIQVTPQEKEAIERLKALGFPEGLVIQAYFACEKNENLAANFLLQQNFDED

| Binder | Kd (XPC-RAD23B [1]) [pM] | Kd (UvrA) [pM] | Kd (XPC-RAD23B [2]) [pM] |
| --- | --- | --- | --- |
| B1 | 1800 | 1300 | – |
| B2 | 76 | 490 | – |
| B3 | – | 3900 | 1100 |
| B4 | 900 | 2400 | – |
| B5 | 16 | 270 | – |
| B6 | 4.2 | 500 | – |
